Patent US20100199363A1, “ENZYMES FOR DEGRADING HERBICIDES” (priority 2006, published 2010)
Read-outs that look alike come from different tables or passages of the source.

Tests used:
GloxA = assay: Substrate range of partially purified recombinant GloxA; assay type: biochemical, Arthrobacter sp. TBD; settings: for Removal of substrate, Specific Activity: partially purified recombinant GloxA; for Removal of substrate, Relative Activity: relative to glyphosate = 100
Procedure: (§1) Crude enzyme extracts from E. coli cells were prepared as follows. Cells were harvested and the cell pellets resuspended in 1 mL lysis buffer (25 mM Tris-Cl pH 7.5 with 1 mgml^−1 lysosyme) and lysed by sonication on ice (Branson sonifier, 60% duty cycle, 30 seconds on, 30 seconds off for ten repeats). The soluble fraction was collected by centrifugation at 5000 g for 5 minutes and the protein content measured using Biorad protein dye-binding assay (BIORAD). Partially purified extracts were prepared by purification of the S-tagged or HIS-tagged GloxA protein from soluble CFE using S-protein agarose (Novagen) the Talon HIS-tag Purification System (BD Biosciences), according to manufacturer's instructions. Partially pure GloxA was eluted from the column using either 3M MgCl2 or 2.5 mM imidazole in the loading buffer. Enzyme reactions were prepared containing 500 μL crude enzyme extract or 250 μL partially purified enzyme extract (˜10 μg protein lysate) in 25 mM Tris-Cl pH7.5, 1 mM FAD, 0.1 mM MgCl2. After preincubation at 37° C. for 2 minutes, 1 mM glyphosate was added to the reaction, which was then incubated with shaking for a further 10-60 minutes. After the required reaction time, reactions were derivatized with tosyl chloride and analysed by HPLC as described above. All enzyme assays were performed in triplicate and repeated at least twice to confirm data. For determination of apparent kinetic parameters, substrate concentrations were varied over a suitable range, and the data fitted to a sum of exponential equations using Kaleidagraph (Synergy Software) or Hyper 1.1 (J. S. Easterby).

[1] = Resting cell biocatalytic assay of cells expressing recombinant GloxA; assay type: cell-based, E. coli
Procedure: (§2) Detection of glyphosate and AMPA by HPLC analysis was performed using a modified version of the method of Tomita et al. (1991) (Column: C18 4.6 uM, 5 Å column. Mobile Phase: 0.2MK2HPO4, 15% acetonitrile). Analytes were derivatized with tosyl chloride and detected at a wavelength of 240 nm. One ml of reaction supernatant was mixed with 0.5 mL 0.4MNaHPO4 pH 11.0, followed by addition of 200 μL tosyl chloride solution (10 mgmL^−1 p-toluene sulfonylchloride [Sigma] in acetonitrile). After incubation at 50° C. for 5 minutes, 20 μL of filtered reaction product was injected onto the HPLC for analysis.
The glyphosate-degrading protein was designated GloxA, and sub-cloning of gloxA into an expression vector and assaying for glyphosate-degrading activity confirmed cells expressing recombinant GloxA were able to degrade glyphosate, with resting cell biocatalytic assays having glyphosate-degrading activity of 300 μmol min^−1 mg wet cell mass^−1, and crude enzyme extracts having an activity of 841 μmolmin^−1mg total protein (Table 2). Of importance is that glycine was not detected as a product at this stage of the analysis of GloxA, and is presumed to have been rapidly metabolized by other enzymes contained within the E. coli resting cells and crude enzyme extract preparation.

[2] = Apparent kinetic parameters of GloxA, glufosinate as substrate; assay type: biochemical; settings: herbicide glufosinate
Procedure: as §1, with “After preincubation at 37° C. for 2 minutes, 1 mM glyphosate was added to the reaction, which was then incubated with shaking for a further 10-60 minutes.” left out, “For determination of apparent kinetic parameters, substrate concentrations were varied over a suitable range, and the data fitted to a sum of exponential equations using Kaleidagraph (Synergy Software) or Hyper 1.1 (J. S. Easterby).” left out

[3] = Apparent kinetic parameters of GloxA, glyphosate as substrate; assay type: biochemical; settings: herbicide glyphosate
Procedure: as §1, with “For determination of apparent kinetic parameters, substrate concentrations were varied over a suitable range, and the data fitted to a sum of exponential equations using Kaleidagraph (Synergy Software) or Hyper 1.1 (J. S. Easterby).” left out

[4] = GloxA enzyme assay with crude or partially purified extracts, HPLC after tosyl chloride derivatization; assay type: biochemical
Procedure: as §2, §1

[5] = Side-by-side assay of GloxA and synthetic GOX extracts, glyphosate; assay type: biochemical; settings: extracts assayed side-by-side, FIG. 4
Procedure: (§3) Crude enzyme extracts from E. coli cells were prepared as follows. Cells were harvested and the cell pellets resuspended in 1 mL lysis buffer (25 mM Tris-Cl pH 7.5 with 1 mgml^−1 lysosyme) and lysed by sonication on ice (Branson sonifier, 60% duty cycle, 30 seconds on, 30 seconds off for ten repeats). The soluble fraction was collected by centrifugation at 5000 g for 5 minutes and the protein content measured using Biorad protein dye-binding assay (BIORAD). Partially purified extracts were prepared by purification of the S-tagged or HIS-tagged GloxA protein from soluble CFE using S-protein agarose (Novagen) the Talon HIS-tag Purification System (BD Biosciences), according to manufacturer's instructions. […] After the required reaction time, reactions were derivatized with tosyl chloride and analysed by HPLC as described above. […]
(§4) For the purposes of direct comparison between the enzymes, a synthetic construct was made encoding the GOX gene based on SEQ ID NO:17 from U.S. Pat. No. 5,776,760. […] Soluble protein expression of GOX was optimized under varying temperature and IPTG conditions, and GOX protein expression detected by Coomasie-stained SDS-PAGE analysis and GOX enzymatic activity assayed as described above for GloxA, with HPLC analysis of activity to detect the removal of glyphosate and production of AMPA according to analytical methods above.

[6] = Glyphosate degradation by GloxA-like homologous proteins, soluble cell-free extracts; assay type: biochemical; settings: soluble cell-free protein extracts
Excerpt: Selected putative GloxA-like homologous proteins were then expressed and assayed for glyphosate degradative activity. The nucleotide coding sequences of selected putative homologues were commercially synthesised (Geneart, GmBH), cloned and expressed using the Champion pET200D/TOPO. Expression System (Invitrogen), according to manufacturer's instructions. Recombinant protein expression was verified and quantitated by Coomasie-stained SDS-PAGE analysis and spot-densitometry using AlphaImager 2200 visualization and documentation system (Alpha Innotech).
Enzymatic assays to assess glyphsate degradation were, performed using soluble cell-free protein extracts (partially purified protein) in a 1 ml volume containing 100 μg total cell-free protein (˜10 μg enzyme extract), 1 mM MgCl2, 1 mM glycine in 20 mM Tris-Cl pH 7.2. Negative controls included cell-free extracts from E. coli BL21 Star both containing no expression vector and containing pET200D/TOPO without an insert.

[7] = system: A. thaliana var. Landsberg; assay: Glyphosate tolerance of Arabidopsis plants expressing GloxA (Tolerance Score); assay type: in vivo, Arabidopsis thaliana; settings: five times the normal dose (12.5 kga.i.ha^−1), Day 8 post-application of herbicide
Excerpt: FIG. 5. […] To obtain the Tolerance Score, plants were visually assessed for leaf health, plant radius and flowering on Day 8 post-application of herbicide. Untreated controls in perfect health scored 7-8 under the same system.
T1 seedlings can be transplanted and cultivated for seed through two generations to eventually isolate the homozygous T3 seeds. T2 and T3 plants were then screened for increased resistance to glyphosate, essentially using the methods described by Jander et al. (2003), but with A. thaliana var. Landsberg, not Columbia, and using treatment doses ranging from 2.5-25 kg a.i. ha^−1. The scores given in FIG. 5 are for a dose of 5× the expected I100 dose (12.5 kga.i.ha^−1)

[8] = Side-by-side assay of GloxA and synthetic GOX extracts, iminodiacetic acid; assay type: biochemical; settings: extracts assayed side-by-side, FIG. 4
Procedure: as §3, §4

[9] = GloxA enzyme assay with crude or partially purified extracts, HPLC after tosyl chloride derivatization; assay type: biochemical; settings: for Glyphosate Removal: partially purified GloxA
[10] = wildtype GOX, U.S. Pat. No. 5,776,760; cited from earlier work
[11] = herbicide glyphosate; Siehl et al. (2005), WO 92/00377; cited from earlier work

NCP(=O)(O)O [AMPA, aminomethylphosphonic acid]
Removal of substrate, Specific Activity (GloxA): 602 μmolmin^−1 mg^−1 | Removal of substrate, Relative Activity (GloxA): 71%

O=C(O)CNCP(=O)(O)O [glyphosate, N-(phosphonomethyl)glycine]
Removal of substrate, Specific Activity (GloxA): 841 μmolmin^−1 mg^−1 | Removal of substrate, Relative Activity (GloxA): 100%

O=C(O)CNCC(=O)O [iminodiacetic acid]
Removal of substrate, Specific Activity (GloxA): 5013 μmolmin^−1 mg^−1 | Removal of substrate, Relative Activity (GloxA): 598%

B1: GloxA: 473 amino acid glyphosate-degrading putative oxidoreductase from Arthrobacter sp. TBD, SEQ ID NO:1 (protein)
chain: VKTTVFERNVPQTAVVSHALAGAAHRPYWIDHLQDSATRYPQLDGDAAADLVIVGGGYTGLWTALRAKERDPGRTVILLEGEQVAWAASGRNGGFCEASLTHGHENGKNRWPDELETLDRLGMENLDRMQEAVEKYAMDCEWERTGELNVAVEPHQVAWLQEDDTPGSVFLDQDAVRAEVNSPTYLAGRWHKDSVAMVHPYKLGLELARVATELGVVIYEGTRVRELNDHEHGVTVVTERGIVEAGHVVLGTNVFPSLLKRNQLMTVPVYDYALMTEPLTAEQLESIGWGKRQGIGDVANQFHYYRITKDHRILFGGYDALYFWGRRVDQKHEHQPATWEKIASHFFTTFPQLEGLKFTHKWAGPIDSSTQFCAFFGTARKGRVAYAAGFTGLGVGATAFAADVLLDLLAGLDTERTRLEMVRKRPLPFPPEPLASLGINLTRWSMDRADHNQGKRNIILKALDAVGLGFDS
modifications: Arthrobacter sp. TBD
Catalytic Activity, Removal of glyphosate [1]: 300 μmolmin^−1 mg^−1 wet cell mass | Kcat [2]: 158.9 s⁻¹ | Km [2]: 1200 µM | Kcat [3]: 179.97 s⁻¹ | Km [3]: 56 µM | Specific Activity, Removal of glyphosate ([4]; Crude enzyme extract, approximate value): 841 μmolmin^−1 mg^−1 protein | glycine as a product ([4]; E. coli resting cells and crude enzyme extract preparation): not detected | Specific Activity, Production of glycine ([4]; PPE + FAD + Mg^2+): 548 μmolmin^−1 mg^−1 protein | production of AMPA from glyphosate ([4]; crude extracts and partially purified GloxA): no production | Glyphosate Removal ([4]; partially purified GloxA, Std (Mg^2+)): 856 µmol/min/mg | Specific Activity, Removal of glyphosate ([4]; partially purified enzyme extract, PPE + FAD + Mg^2+): 1590 μmolmin^−1 mg^−1 protein | specific activity towards glyphosate compared with GOX [5]: almost two fold higher | Partially Purified Activity [glyphosate degradation] [6]: 841 µmol/min/mg | tolerance to glyphosate (Tolerance Score) [7]: confers tolerance | specific activity towards iminodiacetic acid compared with GOX [8]: 0.9 times less | Specific Activity, Production of glycine ([9]; PPE + FAD − Mg^2+): 413 μmolmin^−1 mg^−1 protein | Specific Activity, Removal of glyphosate ([9]; PPE + FAD − Mg^2+): 838 μmolmin^−1 mg^−1 protein | Specific Activity, Production of glycine ([9]; PPE − FAD + Mg^2+): 562 μmolmin^−1 mg^−1 protein | Specific Activity, Removal of glyphosate ([9]; PPE − FAD + Mg^2+): 1450 μmolmin^−1 mg^−1 protein | Glyphosate Removal ([9]; Co^2+): 1076 µmol/min/mg | Glyphosate Removal ([9]; No FAD): 520 µmol/min/mg | Glyphosate Removal ([9]; No Metals (+EDTA)): 432 µmol/min/mg | Glyphosate Removal ([9]; Zn^2+): 624 µmol/min/mg

B2: GOX: Glyphosate oxidoreductase producing AMPA and glyoxylate from glyphosate, SEQ ID NO:3 (protein)
chain: MSENHKKVGIAGAGIVGVCTALMLQRRGFKVTLIDPNPPGEGASFGNAGCFNGSSVVPMSMPGNLTSVPKWLLDPMGRCQSGSAISNHHAWLIRFLLAGRPNKVKEQAKALRNLIKSTVPLIKSLAEEADASHLIRHEGHLTVYRGEADFAKDRGGWELRRLNGVRTQILSADALRDFDPNLSHAFTKGILIEENGHTINPQGLVTLLFRRFIANGGEFVSARVIGFETEGRALKGITTTNGVLAVDAAVVAAGAHSKSLANSLGDDIPLDTERGYHIVIANPEAAPRIPTTDASGKFIATPMEMGLRVAGTVEFAGLTAAPNWKRAHVLYTHARKLLPALAPASSEERYSKWMGFRPSIPDSLPVIGRATRTPDVIYAFGHGHLGMTGAPMTATLVSELLAGEKTSIDISPFAPNRFGIGKSKQTGPAS
modifications: Pseudomonas sp. LBAA
specific activity [10]: 15 nmolmin^−mg^−1 | Kcat [11]: 0.667 s⁻¹ | Km [11]: 25000 to 28000 µM
